Assay results published in patent publication US20190324040A1.

Columns and labels:
[1] = molecular target: Zika virus (ZIKV), whole virus particles (Zika virus); experiment: P1F12-ZIKV binding inhibition ELISA (4G2-captured ZIKV); competitor: 1/10 plasma of donor 12 (naive)
[2] = molecular target: Zika virus (ZIKV), whole virus particles (Zika virus); experiment: P1F12-ZIKV binding inhibition ELISA (4G2-captured ZIKV); competitor: 1/10 plasma of donor 138 (DENV+)
[3] = molecular target: Zika virus (ZIKV), whole virus particles (Zika virus); experiment: P1F12-ZIKV binding inhibition ELISA (4G2-captured ZIKV); competitor: 1/10 plasma of donor Class 13 (U.S. naive)
[4] = molecular target: Zika virus (ZIKV), whole virus particles (Zika virus); experiment: P1F12-ZIKV binding inhibition ELISA (4G2-captured ZIKV); competitor: 1/10 plasma of donor Class 14 (U.S. naive)
[5] = molecular target: Zika virus (ZIKV), whole virus particles (Zika virus); experiment: P1F12-ZIKV binding inhibition ELISA (4G2-captured ZIKV); competitor: 1/10 plasma of donor 1248 (DENV+)
[6] = molecular target: Zika virus (ZIKV), whole virus particles (Zika virus); experiment: P1F12-ZIKV binding inhibition ELISA (4G2-captured ZIKV); competitor: 1/10 plasma of donor 1294 (DENV+)
[7] = molecular target: Zika virus (ZIKV), whole virus particles (Zika virus); experiment: P1F12-ZIKV binding inhibition ELISA (4G2-captured ZIKV); competitor: 1/10 plasma of donor 3018 (ZIKV+)
[8] = molecular target: Zika virus (ZIKV), whole virus particles (Zika virus); experiment: P1F12-ZIKV binding inhibition ELISA (4G2-captured ZIKV); competitor: 1/10 plasma of donor Class 8 (U.S. naive)
[9] = molecular target: Zika virus (ZIKV), whole virus particles (Zika virus); experiment: P1F12-ZIKV binding inhibition ELISA (4G2-captured ZIKV); competitor: 1/10 plasma of donor 1255 (naive)
[10] = molecular target: Zika virus (ZIKV), whole virus particles (Zika virus); experiment: P1F12-ZIKV binding inhibition ELISA (4G2-captured ZIKV); competitor: 1/10 plasma of donor Class 10 (U.S. naive)
[11] = molecular target: Zika virus (ZIKV), whole virus particles (Zika virus); experiment: P1F12-ZIKV binding inhibition ELISA (4G2-captured ZIKV); competitor: 1/10 plasma of donor FA7006 (YF vaccine)
[12] = molecular target: Zika virus (ZIKV), whole virus particles (Zika virus); experiment: P1F12-ZIKV binding inhibition ELISA (4G2-captured ZIKV); competitor: 1/10 plasma of donor hu004 (ZIKV+)
[13] = molecular target: Zika virus (ZIKV), whole virus particles (Zika virus); experiment: P1F12-ZIKV binding inhibition ELISA (4G2-captured ZIKV); competitor: 1/10 plasma of donor 802 (ZIKV+)
[14] = molecular target: Zika virus (ZIKV), whole virus particles (Zika virus); experiment: P1F12-ZIKV binding inhibition ELISA (4G2-captured ZIKV); competitor: 1/10 plasma of donor 1280 (DENV+)
[15] = molecular target: Zika virus (ZIKV), whole virus particles (Zika virus); experiment: P1F12-ZIKV binding inhibition ELISA (4G2-captured ZIKV); competitor: 1/10 plasma of donor 3012 (ZIKV+)
[16] = molecular target: Zika virus (ZIKV), whole virus particles (Zika virus); experiment: P1F12-ZIKV binding inhibition ELISA (4G2-captured ZIKV); competitor: 1/10 plasma of donor 3013 (ZIKV+)
[17] = molecular target: Zika virus (ZIKV), whole virus particles (Zika virus); experiment: P1F12-ZIKV binding inhibition ELISA (4G2-captured ZIKV); competitor: 1/10 plasma of donor 1208 (DENV+)
[18] = molecular target: Zika virus (ZIKV), whole virus particles (Zika virus); experiment: P1F12-ZIKV binding inhibition ELISA (4G2-captured ZIKV); competitor: 1/10 plasma of donor FA2002 (YF vaccine)
[19] = molecular target: Zika virus (ZIKV), whole virus particles (Zika virus); experiment: P1F12-ZIKV binding inhibition ELISA (4G2-captured ZIKV); competitor: 1/10 plasma of donor Class 7 (U.S. naive)
[20] = molecular target: Zika virus (ZIKV), whole virus particles (Zika virus); experiment: P1F12-ZIKV binding inhibition ELISA (4G2-captured ZIKV); competitor: 1/10 plasma of donor Class 2 (U.S. naive)
[21] = molecular target: Zika virus (ZIKV), whole virus particles (Zika virus); experiment: P1F12-ZIKV binding inhibition ELISA (4G2-captured ZIKV); competitor: 1/10 plasma of donor Class 6 (U.S. naive)
[22] = molecular target: Zika virus (ZIKV), whole virus particles (Zika virus); experiment: P1F12-ZIKV binding inhibition ELISA (4G2-captured ZIKV); competitor: 1/10 plasma of donor 1252 (DENV+)
[23] = molecular target: Zika virus (ZIKV), whole virus particles (Zika virus); experiment: P1F12-ZIKV binding inhibition ELISA (4G2-captured ZIKV); competitor: 1/10 plasma of donor hu002 (U.S. naive)
[24] = molecular target: Zika virus (ZIKV), whole virus particles (Zika virus); experiment: P1F12-ZIKV binding inhibition ELISA (4G2-captured ZIKV); competitor: 1/10 plasma of donor Class 3 (U.S. naive)
[25] = molecular target: Zika virus (ZIKV), whole virus particles (Zika virus); experiment: P1F12-ZIKV binding inhibition ELISA (4G2-captured ZIKV); competitor: 1/10 plasma of donor 801 (ZIKV+)
[26] = molecular target: Zika virus (ZIKV), whole virus particles (Zika virus); experiment: P1F12-ZIKV binding inhibition ELISA (4G2-captured ZIKV); competitor: 1/10 plasma of donor Class 9 (U.S. naive)
[27] = molecular target: Zika virus (ZIKV), whole virus particles (Zika virus); experiment: P1F12-ZIKV binding inhibition ELISA (4G2-captured ZIKV); competitor: 1/10 plasma of donor 1261 (naive)
[28] = molecular target: Zika virus (ZIKV), whole virus particles (Zika virus); experiment: P1F12-ZIKV binding inhibition ELISA (4G2-captured ZIKV); competitor: 1/10 plasma of donor 515 (naive)
[29] = molecular target: Zika virus (ZIKV), whole virus particles (Zika virus); experiment: P1F12-ZIKV binding inhibition ELISA (4G2-captured ZIKV); competitor: 1/10 plasma of donor 533 (ZIKV+)
[30] = molecular target: Zika virus (ZIKV), whole virus particles (Zika virus); experiment: P1F12-ZIKV binding inhibition ELISA (4G2-captured ZIKV); competitor: 1/10 plasma of donor Class 12 (U.S. naive)
[31] = molecular target: Zika virus (ZIKV), whole virus particles (Zika virus); experiment: P1F12-ZIKV binding inhibition ELISA (4G2-captured ZIKV); competitor: 1/10 plasma of donor Class 4 (U.S. naive)
[32] = molecular target: Zika virus (ZIKV), whole virus particles (Zika virus); experiment: P1F12-ZIKV binding inhibition ELISA (4G2-captured ZIKV); competitor: 1/10 plasma of donor 507 (DENV+)
[33] = molecular target: Zika virus (ZIKV), whole virus particles (Zika virus); experiment: P1F12-ZIKV binding inhibition ELISA (4G2-captured ZIKV); competitor: 1/10 plasma of donor 177 (DENV+)
[34] = molecular target: Zika virus (ZIKV), whole virus particles (Zika virus); experiment: P1F12-ZIKV binding inhibition ELISA (4G2-captured ZIKV); competitor: 1/10 plasma of donor 1273 (naive)
[35] = molecular target: Zika virus (ZIKV), whole virus particles (Zika virus); experiment: P1F12-ZIKV binding inhibition ELISA (4G2-captured ZIKV); competitor: 1/10 plasma of donor 3004 (ZIKV+)
[36] = molecular target: Zika virus (ZIKV), whole virus particles (Zika virus); experiment: cell-based or functional assay
[37] = molecular target: Zika virus (ZIKV), whole virus particles (Zika virus); experiment: P1F12-ZIKV binding inhibition ELISA (4G2-captured ZIKV); competitor: 1/10 plasma of donor 1235 (DENV+)
[38] = molecular target: Zika virus (ZIKV), whole virus particles (Zika virus); experiment: P1F12-ZIKV binding inhibition ELISA (4G2-captured ZIKV); competitor: 1/10 plasma of donor 184 (DENV+)
[39] = molecular target: Zika virus (ZIKV), whole virus particles (Zika virus); experiment: P1F12-ZIKV binding inhibition ELISA (4G2-captured ZIKV); competitor: 1/10 plasma of donor 168 (DENV+)
[40] = molecular target: Zika virus (ZIKV), whole virus particles (Zika virus); experiment: P1F12-ZIKV binding inhibition ELISA (4G2-captured ZIKV); competitor: 1/10 plasma of donor Class 1 (U.S. naive)
[41] = molecular target: Zika virus (ZIKV), whole virus particles (Zika virus); experiment: P1F12-ZIKV binding inhibition ELISA (4G2-captured ZIKV); competitor: 1/10 plasma of donor 1302 (ZIKV+)
[42] = molecular target: Zika virus (ZIKV), whole virus particles (Zika virus); experiment: P1F12-ZIKV binding inhibition ELISA (4G2-captured ZIKV); competitor: 1/10 plasma of donor Class 5 (U.S. naive)
[43] = molecular target: Zika virus (ZIKV), whole virus particles (Zika virus); experiment: P1F12-ZIKV binding inhibition ELISA (4G2-captured ZIKV); competitor: 1/10 plasma of donor Class 11 (U.S. naive)
[44] = molecular target: Zika virus (ZIKV), whole virus particles (Zika virus); experiment: P1F12-ZIKV binding inhibition ELISA (4G2-captured ZIKV); competitor: 1/10 plasma of donor FA2005 (YF vaccine)
[45] = molecular target: Zika virus (ZIKV), whole virus particles (Zika virus); experiment: P1F12-ZIKV binding inhibition ELISA (4G2-captured ZIKV); competitor: 1/10 plasma of donor 152 (DENV+)
[46] = molecular target: Zika virus (ZIKV), whole virus particles (Zika virus); experiment: virus capture ELISA
[47] = molecular target: Zika virus (ZIKV), whole virus particles (Zika virus); experiment: P1F12-ZIKV binding inhibition ELISA (4G2-captured ZIKV); competitor: 1/10 plasma of donor 3002 (ZIKV+)
[48] = molecular target: Zika virus (ZIKV), whole virus particles (Zika virus); experiment: P1F12-ZIKV binding inhibition ELISA (4G2-captured ZIKV); competitor: 1/10 plasma of donor FA2004 (YF vaccine)

B1: CC17 mAb (P1F12) (antibody, V domains shown)
VH: QVQLVQSGGGLVQPGGSLRLSCAASGFTFSSYWMSWVRQAPGKGLEWVANIKQDGSEKYYVDSVKGRFTISRDNAKNSLYLQMNSLRAEDTAVYYCAGNGWDDSSGYYYRNYYYGMDVWGQGTTVTVSS
VL: DIQMTQSPSSFSASTGDRVTITCRASQGISSYLAWYQQKPGKAPKLLIYAASTLQSGVPSRFSGSGSGTDFTLTISCLQSEDFATYYCQQYYSYPRTFGGGTKVDIK
Binder B1 has a P1F12-ZIKV inhibition assay (Abs450) [1] of 0.22 Abs450, a P1F12-ZIKV inhibition assay (Abs450) [2] of 0.34 Abs450 and a P1F12-ZIKV inhibition assay (Abs450) [3] of 0.276 Abs450. The P1F12-ZIKV inhibition assay (Abs450) [4] was 0.323 Abs450, the P1F12-ZIKV inhibition assay (Abs450) [5] was 0.36 Abs450 and the P1F12-ZIKV inhibition assay (Abs450) [6] was 0.29 Abs450. It also gave a P1F12-ZIKV inhibition assay (Abs450) [7] of 0.04 Abs450, a P1F12-ZIKV inhibition assay (Abs450) [8] of 0.303 Abs450 and a P1F12-ZIKV inhibition assay (Abs450) [9] of 0.323 Abs450. It also gave a P1F12-ZIKV inhibition assay (Abs450) [10] of 0.315 Abs450, a P1F12-ZIKV inhibition assay (Abs450) [11] of 0.396 Abs450 and a P1F12-ZIKV inhibition assay (Abs450) [12] of 0.04 Abs450. It also gave a P1F12-ZIKV inhibition assay (Abs450) [13] of 0.05 Abs450, a P1F12-ZIKV inhibition assay (Abs450) [14] of 0.29 Abs450 and a P1F12-ZIKV inhibition assay (Abs450) [15] of 0.05 Abs450. The P1F12-ZIKV inhibition assay (Abs450) [16] was 0.03 Abs450, the P1F12-ZIKV inhibition assay (Abs450) [17] was 0.25 Abs450 and the P1F12-ZIKV inhibition assay (Abs450) [18] was 0.319 Abs450. It also gave a P1F12-ZIKV inhibition assay (Abs450) [19] of 0.246 Abs450, a P1F12-ZIKV inhibition assay (Abs450) [20] of 0.312 Abs450 and a P1F12-ZIKV inhibition assay (Abs450) [21] of 0.292 Abs450. The P1F12-ZIKV inhibition assay (Abs450) [22] was 0.19 Abs450, the P1F12-ZIKV inhibition assay (Abs450) [23] was 0.57 Abs450 and the P1F12-ZIKV inhibition assay (Abs450) [24] was 0.406 Abs450. The P1F12-ZIKV inhibition assay (Abs450) [25] was 0.04 Abs450, the P1F12-ZIKV inhibition assay (Abs450) [26] was 0.316 Abs450 and the P1F12-ZIKV inhibition assay (Abs450) [27] was 0.405 Abs450. The P1F12-ZIKV inhibition assay (Abs450) [28] was 0.293 Abs450, the P1F12-ZIKV inhibition assay (Abs450) [29] was 0.03 Abs450 and the P1F12-ZIKV inhibition assay (Abs450) [30] was 0.344 Abs450. For the same binder, the P1F12-ZIKV inhibition assay (Abs450) [31] was 0.392 Abs450, the P1F12-ZIKV inhibition assay (Abs450) [32] was 0.28 Abs450 and the P1F12-ZIKV inhibition assay (Abs450) [33] was 0.18 Abs450. For the same binder, the P1F12-ZIKV inhibition assay (Abs450) [34] was 0.395 Abs450, the P1F12-ZIKV inhibition assay (Abs450) [35] was 0.03 Abs450 and the % of Zika virus Neutralized (Vero infectivity assay), antibody at 1 µg/ml [36] was 82.3%. It also gave a Neut50 [36] of 2 µg/mL, a PRNT50 (plaque reduction neutralization test) [36] of 2 µg/mL and a P1F12-ZIKV inhibition assay (Abs450) [37] of 0.18 Abs450. For the same binder, the P1F12-ZIKV inhibition assay (Abs450) [38] was 0.26 Abs450, the P1F12-ZIKV inhibition assay (Abs450) [39] was 0.32 Abs450 and the P1F12-ZIKV inhibition assay (Abs450) [40] was 0.323 Abs450. For the same binder, the P1F12-ZIKV inhibition assay (Abs450) [41] was 0.62 Abs450, the P1F12-ZIKV inhibition assay (Abs450) [42] was 0.389 Abs450 and the P1F12-ZIKV inhibition assay (Abs450) [43] was 0.395 Abs450. For the same binder, the P1F12-ZIKV inhibition assay (Abs450) [44] was 0.332 Abs450, the P1F12-ZIKV inhibition assay (Abs450) [45] was 0.15 Abs450 and the ZIKV binding Abs 450 nm [46] was 0.17 Abs 450 nm. For the same binder, the P1F12-ZIKV inhibition assay (Abs450) [47] was 0.04 Abs450 and the P1F12-ZIKV inhibition assay (Abs450) [48] was 0.393 Abs450.
